Assay results reported in patent US5866538A, “Insulin preparations containing NaCl” (Novo Nordisk A/S, priority 1996, dated 1999).

Columns and labels:
[1] = Stability tests of Asp^B28 human insulin preparations in Penfill cartridges, varying NaCl (Example III); format: physicochemical; details: phosphate 13.5 mM, pH 7.40
Method: 369.4 mg Asp^B28 human insulin was dissolved in water by adding 1.6 ml 0.2N HCl and 49 μl zinc chloride solution (40 mg Zn/ml). 40 g of a solution containing 40 mg/g glycerol, 3.75 mg/g phenol and 4.30 mg/g m-cresol was added to the solution while mixing. 10 g of a solution containing 24.0 mg/g disodium phosphate dihydrate and 11 μl/g 2N sodium hydroxide was added while mixing. Finally varying amounts (0 g to 4.38 g) of a solution containing 40 mg/g sodium chloride were added while mixing up to a sodium chloride concentration mentioned in Table 4. pH was adjusted to 7.40±0.05 and water added up to 100 ml. The Asp^B28 Human insulin preparations were introduced into Penfill® cartridges and subjected to stability tests at 25° C. and 37° C.

[2] = Stability of Asp^B28 human insulin solutions with varying Zn, NaCl and pH (Example I); format: physicochemical; details: 4 weeks at 37° C.
Method: Solutions containing 100 U/ml Asp^B28 human insulin, 2.6 mg/ml phenol, 16 mg/ml glycerol and varying amounts of Zn and sodium chloride were prepared. The pH was varied in the range of 7.2 to 7.5.

[3] = 6 weeks at 37° C., NaCl added 5 mM, total Cl^- 8.5 mM
[4] = 6 weeks at 37° C., NaCl added 12.5 mM, total Cl^- 16.3 mM
[5] = 6 weeks at 37° C., NaCl added 20 mM, total Cl^- 23.8 mM
[6] = 6 weeks at 37° C., NaCl added 25 mM, total Cl^- 28.8 mM
[7] = 6 weeks at 37° C., NaCl added 30 mM, total Cl^- 33.8 mM
[8] = 12 weeks at 25° C., NaCl added 0 mM, total Cl^- 3.8 mM
[9] = 12 weeks at 25° C., NaCl added 5 mM, total Cl^- 8.5 mM
[10] = 12 weeks at 25° C., NaCl added 12.5 mM, total Cl^- 16.3 mM
[11] = 12 weeks at 25° C., NaCl added 20 mM, total Cl^- 23.8 mM
[12] = 12 weeks at 25° C., NaCl added 25 mM, total Cl^- 28.8 mM
[13] = 12 weeks at 25° C., NaCl added 30 mM, total Cl^- 33.8 mM
[14] = 13.1 μg Zn/100 U insulin, NaCl 0 mM, pH 7.2
[15] = 13.1 μg Zn/100 U insulin, NaCl 0 mM, pH 7.5
[16] = 13.1 μg Zn/100 U insulin, NaCl 5 mM, pH 7.2
[17] = 13.1 μg Zn/100 U insulin, NaCl 5 mM, pH 7.5
[18] = 13.1 μg Zn/100 U insulin, NaCl 20 mM, pH 7.2
[19] = 13.1 μg Zn/100 U insulin, NaCl 20 mM, pH 7.5
[20] = 16.3 μg Zn/100 U insulin, NaCl 0 mM, pH 7.2
[21] = 16.3 μg Zn/100 U insulin, NaCl 0 mM, pH 7.4
[22] = 16.3 μg Zn/100 U insulin, NaCl 5 mM, pH 7.2
[23] = 16.3 μg Zn/100 U insulin, NaCl 5 mM, pH 7.5
[24] = 16.3 μg Zn/100 U insulin, NaCl 20 mM, pH 7.2
[25] = 16.3 μg Zn/100 U insulin, NaCl 20 mM, pH 7.5
[26] = 19.6 μg Zn/100 U insulin, NaCl 0 mM, pH 7.2
[27] = 19.6 μg Zn/100 U insulin, NaCl 0 mM, pH 7.5
[28] = 19.6 μg Zn/100 U insulin, NaCl 5 mM, pH 7.2
[29] = 19.6 μg Zn/100 U insulin, NaCl 5 mM, pH 7.5
[30] = 19.6 μg Zn/100 U insulin, NaCl 20 mM, pH 7.2
[31] = 19.6 μg Zn/100 U insulin, NaCl 20 mM, pH 7.5
[32] = 22.8 μg Zn/100 U insulin, NaCl 0 mM, pH 7.2
[33] = 22.8 μg Zn/100 U insulin, NaCl 0 mM, pH 7.5
[34] = 22.8 μg Zn/100 U insulin, NaCl 5 mM, pH 7.2
[35] = 22.8 μg Zn/100 U insulin, NaCl 5 mM, pH 7.5
[36] = 22.8 μg Zn/100 U insulin, NaCl 20 mM, pH 7.2
[37] = 22.8 μg Zn/100 U insulin, NaCl 20 mM, pH 7.5

## Asp^B28 human insulin
[1]; [3]
  Asp^B28 Des-amido insulins formed: 4.1%
  Di- & polymers formed: 0.99%
[1]; [4]
  Asp^B28 Des-amido insulins formed: 3.6%
  Di- & polymers formed: 0.92%
[1]; [5]
  Asp^B28 Des-amido insulins formed: 3.0%
  Di- & polymers formed: 0.87%
[1]; [6]
  Asp^B28 Des-amido insulins formed: 3.0%
  Di- & polymers formed: 0.82%
[1]; [7]
  Asp^B28 Des-amido insulins formed: 2.8%
  Di- & polymers formed: 0.80%
[1]; [8]
  Asp^B28 Des-amido insulins formed: 2.7%
  Di- & polymers formed: 0.36%
[1]; [9]
  Asp^B28 Des-amido insulins formed: 2.3%
  Di- & polymers formed: 0.32%
[1]; [10]
  Asp^B28 Des-amido insulins formed: 1.8%
  Di- & polymers formed: 0.39%
[1]; [11]
  Asp^B28 Des-amido insulins formed: 1.7%
  Di- & polymers formed: 0.39%
[1]; [12]
  Asp^B28 Des-amido insulins formed: 1.8%
  Di- & polymers formed: 0.38%
[1]; [13]
  Asp^B28 Des-amido insulins formed: 1.7%
  Di- & polymers formed: 0.38%
[2]; [14]
  Asp^B28 Des-amido insulins formed: 3.44%
  Di- & polymers formed: 1.35%
[2]; [15]
  Asp^B28 Des-amido insulins formed: 3.57%
  Di- & polymers formed: 1.36%
[2]; [16]
  Asp^B28 Des-amido insulins formed: 3.48%
  Di- & polymers formed: 1.53%
[2]; [17]
  Asp^B28 Des-amido insulins formed: 3.31%
  Di- & polymers formed: 1.49%
[2]; [18]
  Asp^B28 Des-amido insulins formed: 2.54%
  Di- & polymers formed: 1.72%
[2]; [19]
  Asp^B28 Des-amido insulins formed: 2.47%
  Di- & polymers formed: 1.26%
[2]; [20]
  Asp^B28 Des-amido insulins formed: 3.35%
  Di- & polymers formed: 1.44%
[2]; [21]
  Asp^B28 Des-amido insulins formed: 3.41%
  Di- & polymers formed: 1.46%
[2]; [22]
  Asp^B28 Des-amido insulins formed: 1.74%
  Di- & polymers formed: 0.95%
[2]; [23]
  Asp^B28 Des-amido insulins formed: 2.58%
  Di- & polymers formed: 1.38%
[2]; [24]
  Asp^B28 Des-amido insulins formed: 1.91%
  Di- & polymers formed: 1.05%
[2]; [25]
  Asp^B28 Des-amido insulins formed: 2.00%
  Di- & polymers formed: 1.31%
[2]; [26]
  Asp^B28 Des-amido insulins formed: 3.07%
  Di- & polymers formed: 1.57%
[2]; [27]
  Asp^B28 Des-amido insulins formed: 2.85%
  Di- & polymers formed: 1.80%
[2]; [28]
  Asp^B28 Des-amido insulins formed: 2.71%
  Di- & polymers formed: 1.36%
[2]; [29]
  Asp^B28 Des-amido insulins formed: 2.24%
  Di- & polymers formed: 1.46%
[2]; [30]
  Asp^B28 Des-amido insulins formed: 1.56%
  Di- & polymers formed: 1.15%
[2]; [31]
  Asp^B28 Des-amido insulins formed: 1.68%
  Di- & polymers formed: 1.13%
[2]; [32]
  Asp^B28 Des-amido insulins formed: 2.71%
  Di- & polymers formed: 2.52%
[2]; [33]
  Asp^B28 Des-amido insulins formed: 2.34%
  Di- & polymers formed: 1.45%
[2]; [34]
  Asp^B28 Des-amido insulins formed: 2.18%
  Di- & polymers formed: 1.95%
[2]; [35]
  Asp^B28 Des-amido insulins formed: 1.90%
  Di- & polymers formed: 1.19%
[2]; [36]
  Asp^B28 Des-amido insulins formed: 1.51%
  Di- & polymers formed: 1.05%
[2]; [37]
  Asp^B28 Des-amido insulins formed: 1.46%
  Di- & polymers formed: 1.09%
